# Test results as given in the domain aggregation screens of Martell et al. (2025).
# Assay: soluble fraction after stress (log2 fold change); higher = more stays soluble; pooled small domains, quantitative proteomics
# Settings: stress: 50 degC
# Outline: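 The stress applied to every library was 50°C. These custom libraries of small protein domains were pooled and measured at high throughput with quantitative proteomics as the read-out. Aggregation propensity is expressed as the base-two logarithm of the fold change in how much of each protein remains soluble. The higher the value, the more of that protein stays in solution.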
row,Sequence,soluble fraction (log2)
1,HMTVKEYNRAVDEYSDAVWRFIRGNLRDEDRANDIVQDSFEKLWMHVTEIDYSVAKSWLFSTAYNNMIDI,-0.277
2,HMFPDLTGDELRIVDLLNTANDLQVNIITAKTNLPISRVTSLLFQLEMKGVVKPLAGGMYHLLG,-1.31
3,HMAEELELFHRLISVTGVGPKGALGFLSQLKPQEIILAILSDDVKTLSKAPGVGRKTAQRVILELKDKF,-1.14
4,HMELSSRQAMIVDIVRKYEPITSEQIADKLNLTRSALRPDLAVLTMIGILEARPRVGYFFTGK,0.141
5,HMSIHPRDKADLGTALSKWKKGALDDKQLELEVARVFMRTYGKKLEGQALNKAVAAWVAALTQSKK,0.506
6,HMNVNEIREMYPEGTQIVLTEMRGENQMPYGLKGTVKFVDDAGQIHMKWENGSSLALNINEDTFEKVE,0.147
7,HMKSLLTARQLEVFEIARNKGYWTTPRKISLVELSKLLDISKSTLSVLLHSIEGKVMEEFYEEIRQ,-1.81
8,HMGDPYAILGLLPGASMEDVRHAWRRQAAENHPDRMLQRGAPPEFVEIAREKTAAINAAYARIREELSI,-0.303
9,HMGGGTPEERLATLAAIAERQEMLLERLGPNNPLVSLGQYSRTLSRMVQLAGFKDASQYFNELPLDFQMPE,-0.212
10,HMNEFGIPDKKLQDIETRVNSMSLEQLNAARSMLIDEQEALNSSTGSASSGRLKEIAAELSTIQKALIAIA,0.163
11,HMKGTVKFFNESKGFGFITEEGTNKEHFVHVSGLVDEIRENDEVEFDLQDGRKGLNAVNVRV,0.231
12,HMQLEPLITSVIPVNFAKAGEVATTIKGKEVGLVSDRGSITAESRTNVLIVKDIKKNVDDISAMVKRLD,0.123
13,HMSGIQNNFITRLKKVLAPTIGIAEEISDLLNISIDSAYRRIRGETDFTFEEIYIITRKHKISIDEIYG,-3.58
14,HMESEIYKKIEKSRLLELAFTKSQKGDLTGAYDLYYQAFTKYDVIADNQNRYFEDFISLIRRKQQQD,-0.739
15,HMHSILDDIEGIGPARRKALMRHYMNLDAIKSATVEELAAVPSMNEKSAKAVHNFFHQQKKD,0.242
16,HMDGYVPAERIASEVGVSARTITREMHGLEMTLMPYGIALLRRTGAGFMLAGTAKALADLRKHMTEDADTQ,-0.00161
17,HMQTFGTMIAALRKEQGMTQLELAEKMGVTDKAVSKWERDLSFPDVNSLPKLAEIFHVSVDEL,-0.229
18,HMTGIVVVDVVGQVGRPGLVSLPAGSRVADAITAAGGATPEADVSLLNQARLVIDGEQIRVPRPGEVIAA,-0.0367
19,HMFTKSNLEKLSNSELILKAIDSGNYSKIEFGGSEALNPDVPSYKKDLKNREELIEILSEMGM,-0.0323
20,HMGTGADKNSWTIGDKVKHRKWGTGTVVKVTGAGEDAELDIAFKSEGIKRLLAAFAPIEKVK,-0.034
21,HMEHIEVDTSHIAVGSKVKHKAFGLGEITDKGNTYVFVKFDGQAIPKKFQFPGAFTQGFLTK,0.144
22,HMKILVTDDNIRIDKYLTTQTEYSRSTIQKMIESNNILVNNKPTKSNYILRNNDEITIDENFNEE,-0.11
23,HMRLEEVSVPQRLLAAIAEEREVQIGIVDGRGGTRVLRVEPLALEGGRLRARDVESGEEFTVLIHRVLL,-0.274
24,HMKRVTRQRTEILRVIDESERPLGPQEILQAGREAIPSLSIATIYRTLRDLLAEELIKTVALPGDSPRYES,-1.31
25,HMVTFDEISQSLVRDVAARRSLSVQTLHAMVDRYNAGSSINAVANQYGIDRLKLREILIELGVHVAT,0.159
26,HMEDIASESVKRVIRKIIDDEDKKSPLSDQAIVEILAKGEGIVIARRTVAKYREMMGILPSSKRKKH,-0.209

row,Sequence,soluble fraction (log2)
1,HMGFSDDEHNALADADLKKALEVTTNKSETQYNIAKLIYSYIISLGDKKPYGDWSYDKALSIIHDA,0.0519
2,HMGDWEDFWEKEARRRKLSLDYQVVRSLSRWSREYDWGEEDVEQFLSQFPEGETVKMEDVELYFE,-1.12
3,HMRKMELTEAAEKLIEEPDVVSAYRNMQQIFQQWREIGPVPREQRDEVWSHFKDLMTQVNRRHQAHFEN,-0.0451
4,HMTSPVEDLLDKAIQLYREENFEEAIAKWEEVLALDPSKLEAKFNIEIAQDRIKEKQIQEDLKSS,0.0629
5,HMEYQSLVLDFLEQGDFNAEKLKDYQRAFAKQNGMQTLPSKSQILQAYFQLVEEKKINKNSDFELLLRKR,0.0447
6,HMRTPTGVQAYLSSGLIKGIGEKTAAAIVDKFGTDALSVIETDPERLLEIPGITPNKLREILESYNQH,0.141
7,HMEELGKVRPELDGNEIAKVLGITPGPVLGRAYTYLLSVRLDEGPIGPDVARERLLAWWAEQPES,-1.28
8,HMTIDANAIEKMVLDLIGEHPNEWGRYRDGDKKVQGFFVGQIMKATSGQADGKIVNQILSQHAEA,-0.115
9,HMGVAAEDPDEAEKGAHSLKSSAANVGAEVVRGLAGEIESAASSGDVEAVRTILPGLEDAYSQAITDLET,0.0162
10,HMKVSVPDIMDNSSLRQAEAKLRALGFRVTEPEYISGEKDWVYSVTYKGRTLNAGDKVPHEALLTLHVGNG,-0.0697
11,HMEVFGDTKEEQMIIDILKLGITDLEHLQAKSMLEPAIFSQTLTMLEISGKIRPLGAGHWTL,-1.04
12,HMEELTDSELNNLYRELFIARSNASDGVGIIEQKTIKGITYRLSNDNNYLIKELGNKEYIYKNGVWEEYT,0.0711
13,HMAILDTALDVLSMNLKDNYTSFQILRQAAIAGKIAFNLTEKNPLGGVIEVELTGDDLETWIEAATW,-0.115
14,HMETVRHFRLDWSQAADRLDKVLASLMNDVSRARIQEWIRLGAVSVNGEILTDVRAKVAGGDAIDVTPQTA,-0.0893
15,HMGIFDIIQEINRQGVTVLLIEQNANMALKIADVGYVLETGRISLTGSGRELLANEAVKKAYL,-0.0514
16,HMGGQYQVRPGETLNQIAARVRPSNMSLSETQKAIIQANPDIFKNGNPNLIFAGDILRIPTGNQI,0.211
17,HMGAPAISYSKFLEQVDRKNVASVTIYKDGRIDGVMTSGSRFATESPSDPGLVGDLLKAGVEIRAKPP,0.126
18,HMETPQIVARGDLITMVFRSGSLVLTAKGKALENGAMGDTIRVVNSDSNKTLAARVSASREVTVSE,-0.417
19,HMETKPTELMLEVHELRIGMFVHLDLGWMDHPFPLNRFKISTNSQIEQIKGLRLKQVKVMTALSDPTALS,-2.21
20,HMDLDIRDDIYRANIPNDYKLQQMQNNIDYDKVLTGYYNNRPEANVIANRTLQLANDVYNRD,-0.0187
21,HMGVGVKSTEVDYQRTSSGSDIPTDDAAWTKTIPAVKVNTFLWTRTKINYTDGTSAIFYSVGY,-0.281
22,HMSEEQLKAFLEKVQGDTSLQEKLKAAADANAVVEIAKEAGFSISADDLKNAQSELSEEELE,-0.0697
23,HMDIVENSMPNVVGLELNRAKELMTQLGFTNVRYEPTESSRPENEVVYQSVDKDETLDVSSEIIIQYSSGV,-0.0131
24,HMSGDYRPLYPNLPESEKSEAFNLLAGSALPARLDDRTGDIMVPADRYYEARMILANAGFAD,0.0141
25,HMSHKYKLTVPETGEGTRVDKFLSSALTELSRTRLKSLIEEGQVTLGGVKLTNPSHRVKSGDELNIEIPVP,0.146
26,HMKNEYAMVIQVNGKLRGNMLVSADLEQKDIERMALDNEDIKRFISHENDVKKMIFVPKKLINIVT,-0.351

row,Sequence,soluble fraction (log2)
1,HMEFLDLEIDVDATDGRLLAFLAAKGEVVSQTFNDTIITVRVRMPTGAMGQVHRSALAIRPA,-0.507
2,HMKKDLATYAYEHIKQMVIDRELMPGERIQQEVLARELGISRTPLVTALNRLASENLVELEANKGFSVRRF,-0.0386
3,HMGSNLSFDLSQIIASRYQEKAAELGLTAPSLARTDLSPQEQATAEVVARAIIADYYDQRVAPFNDLIPQ,-0.394
4,HMTYFDIAPELLTVYKEINDIPRDINQIVRKTGLSINEVSYKTMILQLEDKIVELPGQRFIRNS,-1.99
5,HMPQGFEDLTEREREVLTLIAEGRTNQEIADALVISIKTVNRHRENIMAKLNLHSRVELVRYAIAQGLI,-0.474
6,HMINIDESIDESLSEDDAVLDLLERASASFTKAQEALLEGDLGRYQTLIEQADRLVAKALELLDEKN,-0.457
7,HMNFEIEVTENGKRIDSYLAEELDLSRSKVQKLIKQELVTVNGKVVSNNYNVKLGDTILVNDD,0.0352
8,HMDNMTEMQKAVTALIEKSGGSIDNLSVIYDHLKKKYPSFDLKDYGYSRFSSFLRSMENIMVRGNAVTLRS,0.0337
9,HMGQNYTIVKGDSLWKIAQKQYGDGSQWKKIYDANKDAIESAAKKYGKKSSDSGKWIYPGVSLII,0.0704
10,HMNQSAVMAERMKQTKNRILQTAKEIFLEQGYKRTTIRQIVERSGITSGSIYNIFSSKEEIFSALVDDL,-2.65
11,HMIYSKSDLELFGIKKIDVMEENILMLILSEYELDQTPKNILIDEAVRLSKKFGADNAYKFVNATLDTLL,-0.944
12,HMNFDLDSFKQRMTLDGLYFGNEKQDVIALNNLSERYQLTWFDVYQLAKETSSNHKILPKRILVKLQQ,-1.07
13,HMGNTLAYSEFRQKVQEGAVKQVVLSEDRVTGELTNGDRFTANIVRDPELLKMLNDNNVKYDGKPT,0.203
14,HMIPSLTITVNEHSRQITRGTSLYTLRDALYPDADVLVVNGHPADSDRHLEEGDAVVLIRRGA,-0.275
15,HMFEYDEIMEQSVPKIAWGSLLTIMKKASSHKEMLWYINETYKNGWSRSMVLNQIAMASYERSLIE,-0.851
16,HMKEFEINSQWKPSLEVYDILSVKGGISRNFIEDSIPEFVLYWRGRGDKSNTWDSKFVQHVKRQWNFYSGL,-3.32
17,HMSVTSEIGAKIKYFRKSKHFSLQEMADLLYKSKSTLSKYENGQISIDIETLYAIAKVLGVHVEQLLYSEP,-4.49
18,HMNTAALSLQRRNEIKKWLLEEKTLTVAALSNRFNVTYETIRRDLEILEKEGFLKKVYGGAALNERV,-0.0358
19,HMKLTKPQEVFIQELLKGSSQYEAYLKAYPSKKTWKRNSIDTEASKLFKNAKIKQRYEELLYNIREE,-0.167
20,HMDPEEQIQSREIWEAVERALDGMQEKGRRVVIALLEGQTQLEVSRAAGISQPLISYYLKSFRTKVRTELG,-0.48
21,HMYPMQNYSTIIGVIELRQQSVGYATTQKRYGIGSSTVTLIMKRFKELGLTLEELRAMPPKAVEVAFYPPE,-1.11
22,HMKLGYTVHGNVVTVKAVANGISLYNTIGQKVAESTDGQTVKAPAHGVYILSVQGKSGSRETAKIVI,-0.39
23,HMDEEVLVVQEGGERLDVFVAANAEGITRSFVQNLIKKGDVTVDGAPRKANYRLRSGQVVRFSLPEP,-0.328
24,HMVFADRLRALRKKSGLTQDEFSKQTGIGRSAVGMYESGKREPNYTTLSKVARFYHVSTDYLLGRTDTP,-1.04
